Molecular target: DR3 on mouse CD4+ T cells (mouse)
Assay: cell-based or functional assay

DR3 on mouse CD4+ T cells (mouse), sequence (Q9QZZ6 19-201): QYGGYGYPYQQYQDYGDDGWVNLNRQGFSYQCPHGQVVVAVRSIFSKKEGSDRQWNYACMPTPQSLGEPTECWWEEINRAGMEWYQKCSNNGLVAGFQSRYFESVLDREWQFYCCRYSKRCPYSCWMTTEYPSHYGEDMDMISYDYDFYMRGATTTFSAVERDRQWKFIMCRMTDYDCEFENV

“recombinant mouse TL1A (from UniProt Q5UBV8 76-252) (ligand)” was tested, and the IL-2 production by activated T cells, increase by TL1A was < 2 fold, the IL-4 production by activated T cells, increase by TL1A was 10 fold and the interferon-γ production by activated T cells, increase by TL1A was < 2 fold.

Reference: patent publication US20160053007A1
